Measured values as given in patent US20180030144A1 (INNATE PHARMA, published 2018).
Where a chain is given by its changes, count along the chain named. Numbers in names are those of the source. Values belong to the binder of their own block, whether it stands above or below them.

Assays:
[1] = target: T1, recombinant human CD73-His extracellular domain protein (soluble dimer) (human, UniProt P21589 27-547); test: ELISA, plate-coated recombinant human CD73
T1 construct: Purified as a dimer; also called huCD73; soluble recombinant human CD73
T1 sequence: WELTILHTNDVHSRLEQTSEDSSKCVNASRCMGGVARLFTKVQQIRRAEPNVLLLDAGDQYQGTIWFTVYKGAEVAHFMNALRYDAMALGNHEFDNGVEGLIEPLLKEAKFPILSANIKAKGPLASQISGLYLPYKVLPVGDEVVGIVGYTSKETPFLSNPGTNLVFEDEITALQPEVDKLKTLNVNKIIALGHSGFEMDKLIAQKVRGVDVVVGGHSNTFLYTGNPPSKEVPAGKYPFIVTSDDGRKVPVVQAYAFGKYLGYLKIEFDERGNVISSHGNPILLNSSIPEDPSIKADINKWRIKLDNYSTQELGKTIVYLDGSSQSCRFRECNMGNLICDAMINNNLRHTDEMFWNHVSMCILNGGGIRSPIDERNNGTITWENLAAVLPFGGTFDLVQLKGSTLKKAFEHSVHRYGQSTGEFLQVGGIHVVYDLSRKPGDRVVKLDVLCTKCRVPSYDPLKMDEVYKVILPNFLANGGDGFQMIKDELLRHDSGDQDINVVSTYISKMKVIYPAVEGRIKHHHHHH
Procedure: 5 μg/ml of recombinant human CD73 protein (IPH, isoform E6) was coated on MaxiSorp ELISA plates (Nunc) in PBS, overnight at 4° C. Plates were washed 5 times in washing buffer (PBS, 0.05% Tween20) and unspecific sites were saturated by adding 200 μl/w TBS starting block buffer (Thermo Ficher). Dose-range of anti-CD73 antibodies were incubated for 2 h at 37° C. Plates were washed 5 times in washing buffer and HRP-coupled goat anti-human or goat anti-mouse IgG Fc fragment secondary antibody (Bethyl, 1/50000) was added for 1 hr at RT to detect bound anti-CD73 antibodies. […] The enzymatic reaction was stopped by adding HCl 1M and O.D. was measured at 450 nm. Optical density vs. anti-CD73 Ab concentration was plotted on graphs and EC50 is calculated using GraphPad Prism software.

[2] = target: T1, recombinant human CD73-His …; test: cell-based or functional assay
[3] = target: T2, mouse CD73 expressed on a recombinant host cell line (mouse, UniProt Q61503 29-551); test: flow cytometry titration on a mouse-CD73-expressing recombinant host cell line, median of fluorescence
T2 construct: whole, on cells; also called moCD73
T2 sequence (looked up): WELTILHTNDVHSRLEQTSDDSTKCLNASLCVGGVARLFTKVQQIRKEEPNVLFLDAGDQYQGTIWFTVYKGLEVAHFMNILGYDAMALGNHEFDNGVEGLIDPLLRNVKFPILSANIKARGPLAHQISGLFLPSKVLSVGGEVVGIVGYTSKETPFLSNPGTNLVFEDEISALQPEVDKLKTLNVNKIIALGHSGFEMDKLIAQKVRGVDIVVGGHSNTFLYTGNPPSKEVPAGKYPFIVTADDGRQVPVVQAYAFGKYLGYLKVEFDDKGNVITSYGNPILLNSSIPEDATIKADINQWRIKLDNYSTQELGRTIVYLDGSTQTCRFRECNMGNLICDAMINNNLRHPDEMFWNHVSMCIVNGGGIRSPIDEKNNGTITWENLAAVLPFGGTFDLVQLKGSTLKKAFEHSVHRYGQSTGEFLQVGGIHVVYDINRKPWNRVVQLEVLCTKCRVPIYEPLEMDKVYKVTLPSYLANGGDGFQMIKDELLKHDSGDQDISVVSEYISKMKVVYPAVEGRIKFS

[4] = target: T3, human CD73 expressed at the cell surface (human, UniProt P21589 27-549); test: flow cytometry titration on MDA-MB-231 cells (endogenous CD73), median of fluorescence
T3 construct: GPI-anchored dimer on cells; also called huCD73; cellular CD73
T3 sequence: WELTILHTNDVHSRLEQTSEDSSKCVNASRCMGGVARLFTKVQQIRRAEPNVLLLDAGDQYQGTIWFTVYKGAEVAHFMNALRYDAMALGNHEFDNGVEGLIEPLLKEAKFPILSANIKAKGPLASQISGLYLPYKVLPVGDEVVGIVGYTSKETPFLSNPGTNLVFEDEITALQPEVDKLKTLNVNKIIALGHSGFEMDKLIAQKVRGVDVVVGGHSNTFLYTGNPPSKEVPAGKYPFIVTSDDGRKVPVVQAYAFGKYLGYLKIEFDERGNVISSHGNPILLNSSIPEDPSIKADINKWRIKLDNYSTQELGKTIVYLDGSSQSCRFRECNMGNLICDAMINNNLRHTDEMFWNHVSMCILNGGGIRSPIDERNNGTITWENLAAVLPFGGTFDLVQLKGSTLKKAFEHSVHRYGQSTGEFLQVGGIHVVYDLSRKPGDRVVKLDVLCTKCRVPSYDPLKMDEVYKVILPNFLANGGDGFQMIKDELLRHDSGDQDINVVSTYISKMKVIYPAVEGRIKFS
Procedure: (§1) MDA-MB-231 cells are available from ATCC (reference HTB-26). 10⁵ cells resuspended in PBS/0.2% BSA/0.02% NaN3 (named “staining buffer”) are distributed into round bottom 96W-microplates. Dose-range of anti-CD73 antibodies was added to the plates and cells are incubated for 45 min at 4° C. Cells were washed three times in staining buffer by spinning plates at 400 g for 3 min at 4° C. PE-coupled goat anti-mouse or goat anti-human IgG Fc fragment secondary antibodies (Beckman Coulter) diluted in staining buffer were added to the cells and plates are incubated for 30 additional minutes at 4° C. Cells were washed three times as described above and analyzed on an Accury C6 flow cytometer equipped with an HTFC plate reader.
Median of fluorescence vs. antibodies concentration was plotted on graphs and EC50 is calculated using Graph Pad Prism program.

[5] = target: T3, human CD73 expressed at the cell surface; test: flow cytometry on MDA-MB-231 cells, medium (no APCP)
Procedure: as §1
(§2) Cells were pre-incubated at 37° C. for 30 minutes in the presence or not of 200 μM adenosine 5′-(α,β-methylene)diphosphate (APCP), followed by addition of antibodies. APCP is an analog of ADP and binds irreversibly to the active site of CD73. When bound by APCP, CD73 changes conformation from an “open” conformation to a “closed” conformation. mAbs 11E1, 8C7, 3C12 and 6E1 bound MDA-MB-231 cells with good affinity both in the presence and absence of APCP. In the presence of APCP, the EC50 was similar to that observed in the absence of APCP. The plateau for maximal binding of 11E1, 8C7, 3C12 and 6E1 was higher in the absence of APCP than in the presence of APCP, while the inverse was true for AD2.

[6] = target: T3, human CD73 expressed at the cell surface; test: flow cytometry titration on a human-CD73-expressing recombinant host cell line, median of fluorescence
[7] = target: T3, human CD73 expressed at the cell surface; test: cell-based or functional assay
[8] = target: T3, human CD73 expressed at the cell surface; test: flow cytometry on MDA-MB-231 cells pre-incubated with 200 µM APCP
Procedure: as §1, §2

[9] = target: T4, cynomolgus CD73 expressed on a recombinant host cell line (cynomolgus); test: flow cytometry titration on a cynomolgus-CD73-expressing recombinant host cell line, median of fluorescence
T4 construct: whole, on cells; also called cynoCD73

[10] = target: T3, human CD73 expressed at the cell surface; test: cell-based or functional assay; remark: listed apart in the source
[11] = target: T3, human CD73 expressed at the cell surface; test: cell-based or functional assay; remark: listed apart in the source
[12] = target: T3, human CD73 expressed at the cell surface; test: flow cytometry titration on HEK293T cells transfected with wild type human CD73, MFI PE
human CD73 mutant 3 = target: T5, human CD73 mutant 3 (human, UniProt P21589 27-549); test: flow cytometry titration on HEK293T cells transfected with human CD73 mutant 3, MFI PE
T5 construct: Transfected in HEK293T cells
T5 chain: T3 sequence with A73S, E103A, K107A, E108N, A109S

EC50 [1]: 0.009 µg/mL
EC50 for CD73 blockade (enzymatic activity of soluble recombinant human CD73-his) [2]: 1.29 µg/mL
binding result [3]: no binding (tested: about 30 µg/ml)
EC50 (read off the curve) [4]: ~0.1 µg/mL
EC50 [5]: 0.0903 µg/mL
EC50 (read off the curve) [6]: ~0.1 µg/mL
EC50 for neutralization of the enzymatic activity of cellular CD73 (MDA-MB-231 cells, free phosphate from AMP) [7]: 0.319 µg/mL
EC50 [8]: 0.143 µg/mL
EC50 (read off the curve) [9]: ~0.4 µg/mL
EC50 for neutralization of 5'-ectonucleotidase activity, mean over MDA-MB-231, H292 and A375 cells [10]: 0.21 µg/mL
EC70 for neutralization of 5'-ectonucleotidase activity, mean over MDA-MB-231, H292 and A375 cells [10]: 0.46 µg/mL
EC100 for neutralization of 5'-ectonucleotidase activity, mean over MDA-MB-231, H292 and A375 cells [10]: 0.72 µg/mL
decrease of the enzymatic activity of cellular CD73 (MDA-MB-231 cells) [11]: > 75%
B1: antibody 8C7 (antibody, human IgG1, V domains shown)
VH: EVQLQQSGPELVKPGASVKVSCKASGYAFASYNMNWVKQSHGKSLDWIGYIDPYNGGSSYNLTFKGKATLTVDKSSTTAYMHLNSLTSEDSAVYYCARGYGNYKAWFAYWGQGTLVTVSA
VL: SIVMTPTPKFLLVSAGDRVTITCKASQSVSNDVAWYQQKPGQSPKLLIYYASTRYTGVPDRFTGSGYGTDFTFTISTVQAEDLAVYFCQQDYSSLTFGAGTKLELKR
notes: Produced as chimeric human IgG1 with heavy chain N297Q (Kabat EU numbering); RTVAAP)

EC50 (read off the curve) [12]: ~0.2 µg/mL
EC50 [5]: 0.0629 µg/mL
EC50 (read off the curve) (human CD73 mutant 3): ~0.1 µg/mL
EC50 [8]: 0.0959 µg/mL
B2: antibody AD2 (Biolegend, product ref. 344004) (antibody, V domains shown)
VH: EVQLQQSGAELVKPGASVKLSCTASGFNIKDTYIHWVKQRPEQGLEWIGRIDPATGNTEYDPKFQGKATITADTSSNTAYLHLSSLTSEDTAVYYCARGYYGSSYPPWFAYWGQGTLVTVS
VL: DIVMTQSHKFMSTSVGDRVSITCKASQDVGSAVAWYQQKPGQSPKLLIYWASTRHTGVPDRFTGSGSGTDFTLTISNVQSEDLADYFCQQYSSYPLTFGAGTKLELK
